Target: T1, Histone H4 methylated peptide, SGRGK(me3)GGKGLGKGGAK (trimethyl-lysine K(me3) at K5)
T1 peptide: SGRGKGGKGLGKGGAK
Test: SPR

B1: C9 Fab (Fab, V domains shown)
VH: QSVEESGGRLVTPGTPLTLTCTVSGFSLTSYDMSWVRQAPGKGLEYIGFISSTTGGTYYASWAKGRFTISKTSTTVDLKITSPTTEDTATYFCAAGSWYNMWGPGTLVTVSS
VL: AQVLTQTPSSVSAAVGGTVTINCQASQSVYNNNWLGWYQQKPGQPPKLLIYKASTLASGVPSRFRGSGSGTQFTLTISDVQCDDAATYYCAGGYNGNIFPFGGGTEVVVT
B1 showed a Kd of 1600 µM.

B2: D6 Fab (Fab, V domains shown)
VH: QTVKESGGRLVTPGGTLTLTCTVSGFSLSRYAMSWVRQAPGEGLEYIGWINTYGSAYYASWVNGRFTISKTSTTMDLKMTSLTAADTATYFCVRWFADGGMDPWGPGTLVTVSS
VL: ALVLTQTPSPVSAAVGGAVSISCQSSQNIYKDNELSWYQQKPGQPPKLLIYKASTLASGVPSRFSGSGSGTQFTLTISGVQCDDAATYYCQGSRYNNGWDSGFGGGTEVVVK
In the case of B2, the Kd is reported as 870 µM.

Source: paper PMC7948472 (2020)
